In US20250084174A1 (AstraZeneca / MedImmune, published 2025):

Columns and labels:
CCR8 = target: T1, CCR8 (UniProt P51685 1-355, limits assumed); experiment: binding to cells expressing CCR8, fluorescence counts (FL1 Counts) against Log M
T1 construct: whole, on cells; The cell line is not described

CXCR2 = target: T2, CXCR2 (UniProt P25025 1-360, limits assumed); experiment: binding to cells expressing CXCR2, fluorescence counts (FL1 Counts) against Log M
T2 construct: whole, on cells; The cell line is not described
T2 sequence (looked up): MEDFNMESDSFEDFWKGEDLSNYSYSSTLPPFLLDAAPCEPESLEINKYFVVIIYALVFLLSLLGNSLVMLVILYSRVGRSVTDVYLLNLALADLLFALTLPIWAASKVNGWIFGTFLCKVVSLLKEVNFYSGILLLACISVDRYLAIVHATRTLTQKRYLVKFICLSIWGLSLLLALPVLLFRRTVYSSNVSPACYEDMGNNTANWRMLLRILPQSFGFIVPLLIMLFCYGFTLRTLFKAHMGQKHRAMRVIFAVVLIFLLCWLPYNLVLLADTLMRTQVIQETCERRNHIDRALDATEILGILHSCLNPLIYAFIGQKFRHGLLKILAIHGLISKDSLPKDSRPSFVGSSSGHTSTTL

CCR5 = target: T3, CCR5 (UniProt P51681 1-352, limits assumed); experiment: binding to cells expressing CCR5, fluorescence counts (FL1 Counts) against Log M
T3 construct: whole, on cells; The cell line is not described

CXCR1 = target: T4, CXCR1 (UniProt P25024 1-350, limits assumed); experiment: binding to cells expressing CXCR1, fluorescence counts (FL1 Counts) against Log M
T4 construct: whole, on cells; The cell line is not described
T4 sequence (looked up): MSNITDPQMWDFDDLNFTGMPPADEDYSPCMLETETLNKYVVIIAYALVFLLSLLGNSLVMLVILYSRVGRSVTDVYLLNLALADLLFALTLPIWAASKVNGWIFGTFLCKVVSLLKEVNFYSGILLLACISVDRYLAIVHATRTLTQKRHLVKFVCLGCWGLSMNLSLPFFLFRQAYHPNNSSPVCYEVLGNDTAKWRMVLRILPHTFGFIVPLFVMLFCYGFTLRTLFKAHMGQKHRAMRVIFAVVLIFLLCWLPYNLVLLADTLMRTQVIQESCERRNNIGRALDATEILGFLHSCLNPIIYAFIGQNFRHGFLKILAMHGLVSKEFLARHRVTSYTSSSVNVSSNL

human CCR9B = target: T5, human CCR9B (human, UniProt P51686 13-369); experiment: binding to HEK cells expressing human CCR9B, fluorescence counts (FL1 Counts) against Log M
T5 construct: Overexpressed on HEK cells; also called Hu B HEK; hCCR9 isoform B
T5 sequence: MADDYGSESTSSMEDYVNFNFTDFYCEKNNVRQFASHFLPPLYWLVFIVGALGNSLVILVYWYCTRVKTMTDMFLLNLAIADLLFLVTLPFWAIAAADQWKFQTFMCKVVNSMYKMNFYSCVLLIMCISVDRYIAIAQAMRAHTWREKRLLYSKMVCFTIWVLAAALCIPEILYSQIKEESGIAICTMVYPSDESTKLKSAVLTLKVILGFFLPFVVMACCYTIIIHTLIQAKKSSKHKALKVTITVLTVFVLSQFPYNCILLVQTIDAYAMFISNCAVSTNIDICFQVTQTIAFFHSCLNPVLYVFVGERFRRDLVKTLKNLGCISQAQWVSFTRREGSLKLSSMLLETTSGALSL

cynomolgus CCR9 = target: T6, cynomolgus CCR9 (cynomolgus, UniProt Q0H741 1-369); experiment: binding to HEK cells expressing cynomolgus CCR9, fluorescence counts (FL1 Counts) against Log M
T6 construct: Overexpressed on HEK cells, or endogenous on cynomolgus PBMC; also called cynomolgus CCR9A; Cyno HEK
T6 sequence: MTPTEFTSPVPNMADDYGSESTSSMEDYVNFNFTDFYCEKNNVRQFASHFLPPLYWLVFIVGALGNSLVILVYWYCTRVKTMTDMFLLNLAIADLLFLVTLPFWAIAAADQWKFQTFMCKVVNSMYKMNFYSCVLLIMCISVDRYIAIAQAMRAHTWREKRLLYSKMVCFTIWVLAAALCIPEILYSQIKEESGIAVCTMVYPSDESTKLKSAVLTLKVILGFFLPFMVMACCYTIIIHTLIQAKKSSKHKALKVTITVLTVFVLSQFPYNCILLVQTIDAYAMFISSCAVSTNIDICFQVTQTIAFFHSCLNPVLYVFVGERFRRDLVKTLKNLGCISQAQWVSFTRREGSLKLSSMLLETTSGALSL

T3 sequence (P51681 whole entry): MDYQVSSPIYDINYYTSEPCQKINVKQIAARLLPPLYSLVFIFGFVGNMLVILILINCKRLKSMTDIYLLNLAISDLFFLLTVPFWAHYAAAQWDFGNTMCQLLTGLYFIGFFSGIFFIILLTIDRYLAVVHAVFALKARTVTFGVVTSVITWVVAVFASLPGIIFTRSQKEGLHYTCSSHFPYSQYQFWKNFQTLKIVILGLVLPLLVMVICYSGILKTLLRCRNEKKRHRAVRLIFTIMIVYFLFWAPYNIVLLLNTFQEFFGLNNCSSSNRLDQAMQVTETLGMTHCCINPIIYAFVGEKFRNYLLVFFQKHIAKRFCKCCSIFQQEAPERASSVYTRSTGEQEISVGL
T1 sequence (P51685 whole entry): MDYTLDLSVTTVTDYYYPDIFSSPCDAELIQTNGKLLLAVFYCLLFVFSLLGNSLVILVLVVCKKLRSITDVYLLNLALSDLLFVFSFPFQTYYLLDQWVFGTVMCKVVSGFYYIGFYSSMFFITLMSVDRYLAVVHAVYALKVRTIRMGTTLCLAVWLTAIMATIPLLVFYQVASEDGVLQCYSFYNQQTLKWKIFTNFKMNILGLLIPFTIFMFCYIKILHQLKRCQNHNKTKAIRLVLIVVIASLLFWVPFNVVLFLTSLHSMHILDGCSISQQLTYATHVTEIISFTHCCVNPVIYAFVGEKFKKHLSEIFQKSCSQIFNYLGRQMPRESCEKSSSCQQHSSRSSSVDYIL

B1: humanised AB1020243 afuc (AB1020243-fgl) (antibody, V domains shown)
VH: QVQLVQSGAEVKKPGASVKVSCKASGYTFTSYWMHWVRQAPGQGLEWIGVIYPGNSDTRYNQKFKGRVTITRDTSASTAYMELSSLRSEDTAVYYCTRDYYSNYVYYYAMDYWGQGTTVTVSS
VL: DIVMTQTPLSLPVTPGEPASISCRSSQSLVHSNGNTYLHWYLQKPGQSPQLLIYKVSNRFSGVPDRFSGSGSGTDFTLKISRVEAEDVGVYYCSQSTHVPWTFGQGTKLEIK
modifications: afucosylated form; in the LigandTracer assay DyLight 650 Maleimide on an engineered cysteine residue in the CH2 region
notes: Human IgG1 format is stated for LigandTracer; Full chains are not tied to the tested lot
binding result (CCR8): no binding (tested: Log M about -6.5 (about 3e-7 M)) | binding result (CXCR2): no binding (tested: Log M about -6.5 (about 3e-7 M)) | binding result (CCR5): no binding (tested: Log M about -6.5 (about 3e-7 M)) | binding result (CXCR1): no binding (tested: Log M about -6.5 (about 3e-7 M)) | binding result (human CCR9B): binds | EC50 (read off the curve) (cynomolgus CCR9): ~400 pM
